Test results published in the supplement of paper PMC7877785.
± gives the uncertainty stated by the source.

Test: self-splicing fitness, log relative to wild type (ln ratio); higher = more splicing; Tetrahymena group I intron in knt gene, E. coli kanamycin selection, DiMSum; sequences stand for … in CUCUCU…GGAGGGAAAAGUUAUCAGGCAUGCACCUGGUAGCUAGUCUUUAAACCAAUAGAUUGCAUCGGUUUAAAAGGCAAGACCGUCAAAUUGCGGGAAAGGGGUCAACAGCCGUUCAGUACCAAGUCUCAGGGGAAACUUUGAGAUGGCCUUGCAAAGGGUAUGGUAAUAAGCUGACGGACAUGGUCCUAACCACGCAGCCAAGUCCUAAGUCAACAGAUCUUCUGUUGAUAUGGAUGCAGUUCACAGACUAAAUGUCGGUCGGGGAAGAUGUAUUCUUCUCAUAAGAUAUAGUCGGACCUCUCCUUAAUGGGAGCUAGCGGAUGAAGUGAUGCAACACUGGAGCCGCUGGGAACUAAUUUGUAUGCGAAAGUAUAUUGAUUAGUUUUGGAGUACUCGUGGUCG
Method in brief: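 Six replicate transformations of E. coli BL21(DE3) with a pET-22b(+) library were grown overnight at 37°C or 30°C. The library randomised all eight P1ex-region intron nucleotides, the intron lying in the knt kanamycin-resistance gene, and plates were LB agar with or without 25 μg/mL kanamycin plus 100 μg/mL carbenicillin, 50 μM IPTG and 0.2% rhamnose. Pooled colonies were amplicon-sequenced on an Illumina HiSeq 2500, and fitness is the DiMSum error-weighted combination of wild-type-normalised replicate fold changes, kanamycin versus none.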

Sequence	self-splicing fitness (ln) (30 °C)	self-splicing fitness (ln) (37 °C)
CCACAGCAAUAUUACGGGAU	-4.56 ± 0.26	-2.33 ± 0.15
CCACAGCAAUAUUACGGGGU	-3.71 ± 0.098	-2.53 ± 0.11
CCACAGCAAUAUUACGGUCC	-2.75 ± 0.32	-2.32 ± 0.32
CCACAGCAAUAUUACGGUGA	-0.943 ± 0.06	-0.339 ± 0.062
CCACAGCAAUAUUACGGUGC	-4.03 ± 0.19	-2.97 ± 0.2
CCACAGCAAUAUUACGGUGU	-2.98 ± 0.12	-3.03 ± 0.2
CCACAGCAAUAUUACGUCCU	-3.44 ± 0.27	-1.76 ± 0.19
CCACAGCAAUAUUACGUGCU	-3.61 ± 0.17	-2.88 ± 0.17
CCACAGCAAUAUUACGUGGU	-4.13 ± 0.14	-3.65 ± 0.17
CCACAGCAAUAUUACGUUCC	-4.24 ± 0.24	-2.84 ± 0.27
CCACAGCAAUAUUACGUUUC	-4.16 ± 0.22	-2.44 ± 0.24
CCAGAGCAAUAUUACGAAGG	-3.47 ± 0.19	-1.92 ± 0.22
CCAGAGCAAUAUUACGACUA	-2.95 ± 0.28	-2.47 ± 0.38
CCAGAGCAAUAUUACGAGCC	–	-1.84 ± 0.42
CCAGAGCAAUAUUACGAGGC	-2.82 ± 0.38	-1.34 ± 0.41
CCAGAGCAAUAUUACGAGUA	-2.97 ± 0.23	-3.39 ± 0.28
CCAGAGCAAUAUUACGAUAC	-2.7 ± 0.2	-1.71 ± 0.21
CCAGAGCAAUAUUACGAUGA	-1.88 ± 0.14	-0.518 ± 0.11
CCAGAGCAAUAUUACGCACG	-2.06 ± 0.22	0.34 ± 0.17
CCAGAGCAAUAUUACGCUGC	-2.85 ± 0.27	-1.28 ± 0.25
CCAGAGCAAUAUUACGCUUA	-3.34 ± 0.43	–
CCAGAGCAAUAUUACGGAUU	-3.05 ± 0.15	-2.38 ± 0.16
CCAGAGCAAUAUUACGGCUC	-2.69 ± 0.23	-2.76 ± 0.26
CCAGAGCAAUAUUACGUAAU	-3.66 ± 0.23	-3.18 ± 0.3
CCAGAGCAAUAUUACGUACG	-1.46 ± 0.12	-0.669 ± 0.13

Sequence	self-splicing fitness (ln) (30 °C)	self-splicing fitness (ln) (37 °C)
CCAGAGCAAUAUUACGUAGG	-3.25 ± 0.19	-2.6 ± 0.25
CCAGAGCAAUAUUACGUGUC	-2.88 ± 0.21	-2.29 ± 0.32
CCAGAGCAAUAUUACGUUUA	-3.95 ± 0.29	-1.78 ± 0.2
CCAUAGCAAUAUUACGAAAU	-2.98 ± 0.37	–
CCAUAGCAAUAUUACGAAGA	-3.41 ± 0.29	-2.91 ± 0.34
CCAUAGCAAUAUUACGACUC	-3.37 ± 0.32	-2.18 ± 0.28
CCAUAGCAAUAUUACGAGUC	-4.04 ± 0.19	-2.89 ± 0.21
CCAUAGCAAUAUUACGAGUG	-1.44 ± 0.092	-0.172 ± 0.097
CCAUAGCAAUAUUACGCAGA	-2.96 ± 0.21	-2.16 ± 0.24
CCAUAGCAAUAUUACGCCGA	-1.4 ± 0.26	-1.57 ± 0.42
CCAUAGCAAUAUUACGCCUA	-2.85 ± 0.27	-2.93 ± 0.35
CCAUAGCAAUAUUACGCGUU	-3.53 ± 0.23	-2.51 ± 0.24
CCAUAGCAAUAUUACGCUGG	-3.54 ± 0.19	-2.58 ± 0.2
CCAUAGCAAUAUUACGGAUC	-1.97 ± 0.41	-1.72 ± 0.32
CCAUAGCAAUAUUACGGAUG	-2.42 ± 0.11	-1.43 ± 0.11
CCAUAGCAAUAUUACGGCAC	–	-1.84 ± 0.28
CCAUAGCAAUAUUACGGCAG	-2.02 ± 0.14	-1.34 ± 0.17
CCAUAGCAAUAUUACGGCCU	-3.71 ± 0.37	–
CCAUAGCAAUAUUACGGCUA	-2.48 ± 0.25	-1.89 ± 0.28
CCAUAGCAAUAUUACGGUGC	-3.09 ± 0.17	-2.61 ± 0.25
CCAUAGCAAUAUUACGUAAA	-4.17 ± 0.2	-3.03 ± 0.32
CCAUAGCAAUAUUACGUCCA	-1.27 ± 0.18	-1.85 ± 0.33
CCAUAGCAAUAUUACGUCCG	-0.229 ± 0.077	0.347 ± 0.13
CCAUAGCAAUAUUACGUCUG	-1.4 ± 0.075	-0.687 ± 0.07
CCAUAGCAAUAUUACGUGGA	-2.2 ± 0.14	-2.16 ± 0.18

Sequence	self-splicing fitness (ln) (30 °C)	self-splicing fitness (ln) (37 °C)
CCAUAGCAAUAUUACGUGGU	-4 ± 0.23	-1.73 ± 0.13
CCAUAGCAAUAUUACGUUUC	-3.12 ± 0.15	-0.309 ± 0.2
CCAUAGCAAUAUUACGUUUG	-1.68 ± 0.1	-0.897 ± 0.1
CCCAAGCAAUAUUACGAAGA	-3.32 ± 0.2	-2.59 ± 0.2
CCCAAGCAAUAUUACGAAUU	-3.33 ± 0.12	-2.87 ± 0.15
CCCAAGCAAUAUUACGACAA	-3.14 ± 0.17	-3.12 ± 0.22
CCCAAGCAAUAUUACGACCA	-4.66 ± 0.32	-2.27 ± 0.17
CCCAAGCAAUAUUACGAUGU	-3.53 ± 0.18	-2.04 ± 0.15
CCCAAGCAAUAUUACGCAUU	-3.82 ± 0.2	-2.04 ± 0.19
CCCAAGCAAUAUUACGCCGU	-3.66 ± 0.22	-2.21 ± 0.19
CCCAAGCAAUAUUACGCUAA	-3.05 ± 0.29	-1.23 ± 0.21
CCCAAGCAAUAUUACGCUCC	–	-1.68 ± 0.42
CCCAAGCAAUAUUACGCUUG	-3.39 ± 0.18	-1.92 ± 0.17
CCCAAGCAAUAUUACGGACC	-2.96 ± 0.18	-2.29 ± 0.26
CCCAAGCAAUAUUACGGAGG	-1.95 ± 0.22	–
CCCAAGCAAUAUUACGGCUC	-2.28 ± 0.21	-2.59 ± 0.29
CCCAAGCAAUAUUACGGUCA	-2.13 ± 0.12	-2.22 ± 0.14
CCCAAGCAAUAUUACGGUGA	-1.27 ± 0.07	-1.16 ± 0.077
CCCAAGCAAUAUUACGGUUA	-2.28 ± 0.12	-2.38 ± 0.16
CCCAAGCAAUAUUACGUAAG	-3.05 ± 0.19	-1.87 ± 0.16
CCCAAGCAAUAUUACGUACA	-2.94 ± 0.16	-3.39 ± 0.23
CCCAAGCAAUAUUACGUAGU	-3.65 ± 0.2	-1.93 ± 0.14
CCCAAGCAAUAUUACGUCCA	-1.96 ± 0.14	-2.45 ± 0.23
CCCAAGCAAUAUUACGUGCG	-4.13 ± 0.21	-2.28 ± 0.18
CCCAAGCAAUAUUACGUGUU	-4.07 ± 0.18	-2.46 ± 0.13

Sequence	self-splicing fitness (ln) (30 °C)	self-splicing fitness (ln) (37 °C)
CCCAAGCAAUAUUACGUUGG	-3.48 ± 0.14	-2.28 ± 0.13
CCCAAGCAAUAUUACGUUUA	-3.62 ± 0.14	-3.04 ± 0.18
CCCCAGCAAUAUUACGAAUU	-3.01 ± 0.23	-1.59 ± 0.36
CCCCAGCAAUAUUACGAUCU	-3.24 ± 0.13	-3.06 ± 0.22
CCCCAGCAAUAUUACGCAAG	-3.05 ± 0.14	-2.28 ± 0.19
CCCCAGCAAUAUUACGCCCC	-2.98 ± 0.38	–
CCCCAGCAAUAUUACGCCUG	-3.37 ± 0.19	-2.97 ± 0.27
CCCCAGCAAUAUUACGCGCA	-3.61 ± 0.27	-1.36 ± 0.21
CCCCAGCAAUAUUACGCUGU	-4 ± 0.21	-3.09 ± 0.18
CCCCAGCAAUAUUACGCUUU	-4.4 ± 0.25	-3.36 ± 0.21
CCCCAGCAAUAUUACGGCCA	-3.1 ± 0.2	-2.16 ± 0.2
CCCCAGCAAUAUUACGGCCU	-3.02 ± 0.29	-2.82 ± 0.47
CCCCAGCAAUAUUACGGCGU	-2.22 ± 0.073	-1.81 ± 0.1
CCCCAGCAAUAUUACGGGUC	-2.82 ± 0.11	-2.43 ± 0.16
CCCCAGCAAUAUUACGGUGA	-1.76 ± 0.085	-1.77 ± 0.11
CCCCAGCAAUAUUACGUAUG	-3.71 ± 0.15	-1.96 ± 0.13
CCCCAGCAAUAUUACGUCAG	-2.54 ± 0.14	-1.36 ± 0.15
CCCCAGCAAUAUUACGUCGU	-3.19 ± 0.12	-2.05 ± 0.12
CCCCAGCAAUAUUACGUUCG	-3.53 ± 0.16	-2.79 ± 0.17
CCCCAGCAAUAUUACGUUGC	-3.41 ± 0.12	-2.78 ± 0.17
CCCCAGCAAUAUUACGUUGG	-3.95 ± 0.12	-2.83 ± 0.14
CCCGAGCAAUAUUACGAAAG	-3.74 ± 0.27	-1.7 ± 0.36
